{"source": "paper PMC7137648", "key": {"C1q (Homo sapiens) [1]": {"target": "C1q (Homo sapiens) (UniProt P02745)", "sequence (P02745 23-245, chain 1 of 3)": "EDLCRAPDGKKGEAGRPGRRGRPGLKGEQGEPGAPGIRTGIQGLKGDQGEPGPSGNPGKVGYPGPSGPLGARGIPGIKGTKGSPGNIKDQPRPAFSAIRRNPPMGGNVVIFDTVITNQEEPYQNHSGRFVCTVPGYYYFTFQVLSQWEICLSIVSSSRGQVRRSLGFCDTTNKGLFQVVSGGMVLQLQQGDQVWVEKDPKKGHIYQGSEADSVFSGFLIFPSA", "sequence (P02746 28-253, chain 2 of 3, further chain)": "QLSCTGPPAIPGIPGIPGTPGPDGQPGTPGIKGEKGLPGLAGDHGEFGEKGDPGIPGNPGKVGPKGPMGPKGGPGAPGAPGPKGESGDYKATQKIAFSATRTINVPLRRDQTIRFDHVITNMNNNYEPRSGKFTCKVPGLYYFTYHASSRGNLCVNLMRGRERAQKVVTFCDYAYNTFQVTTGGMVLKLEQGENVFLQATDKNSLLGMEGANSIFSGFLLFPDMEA", "sequence (P02747 29-245, chain 3 of 3, further chain)": "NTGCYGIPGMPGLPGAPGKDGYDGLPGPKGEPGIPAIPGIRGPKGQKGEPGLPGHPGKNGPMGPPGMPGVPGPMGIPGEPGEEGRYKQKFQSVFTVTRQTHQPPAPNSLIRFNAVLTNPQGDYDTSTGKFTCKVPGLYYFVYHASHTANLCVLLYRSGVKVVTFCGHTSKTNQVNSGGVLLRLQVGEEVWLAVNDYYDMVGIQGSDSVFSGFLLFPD", "conditions": "cited from earlier work"}, "[2]": {"target": "complement protein C1q (human) (UniProt P02745)", "sequence (P02745 23-245, chain 1 of 3)": "as the sequence (P02745 23-245, chain 1 of 3) above", "sequence (P02746 28-253, chain 2 of 3, further chain)": "as the sequence (P02746 28-253, chain 2 of 3, further chain) above", "sequence (P02747 29-245, chain 3 of 3, further chain)": "as the sequence (P02747 29-245, chain 3 of 3, further chain) above", "experiment": "SPR; N-glycosylation site mutants of SR-F1(20-421) with C1q (Figures S5A-C), n = 2; which partner was immobilised is not told in the text shown; apparent affinity"}, "C1q (Homo sapiens) [3]": {"target": "C1q (Homo sapiens) (UniProt P02745)", "conditions": "cited from earlier work", "remark": "listed apart in the source"}}, "note": "Read-outs that look alike come from different tables or passages of the source.", "data": [{"substance": "SR-F1 ECD (from UniProt Q14162)", "values": [{"measurement": "Kd", "setting": "C1q (Homo sapiens) [1]", "result": 124, "unit": "nM"}]}, {"substance": "SR-F1(20-421) N289Q (from UniProt Q14162 20-421) (domain or fragment)", "values": [{"measurement": "Kd", "setting": "[2]", "result": 581, "unit": "nM"}]}, {"substance": "calreticulin (from UniProt P27797)", "values": [{"measurement": "Kd", "setting": "C1q (Homo sapiens) [3]", "result": 120, "unit": "nM"}]}]}
